{"source": "paper PMC3679732", "about": "“Cloning and characterization of bifunctional enzyme farnesyl diphosphate/geranylgeranyl diphosphate synthase from Plasmodium falciparum” (Malaria Journal, 2013)", "assay_in_all_cases": "purified protein", "format_in_all_cases": "biochemical, Plasmodium falciparum", "key": {"purified protein [1]": {"substrate": "C=C(C)CCO[P@@](=O)(O)OP(=O)(O)O", "details": "Mg2+ ([…] MgCl2 in assay) second substrate"}, "purified protein [2]": {"substrate": "CC(C)=CCC/C(C)=C/CC/C(C)=C/CO[P@@](=O)(O)OP(=O)(O)O", "details": "Mg2+ ([…] MgCl2 in assay) allylic substrate; DMAPP, GPP, and FPP all compete for binding to the free enzyme active site"}, "purified protein [3]": {"substrate": "CC(C)=CCC/C(C)=C/COP(=O)(O)OP(=O)(O)O", "details": "Mg2+ ([…] MgCl2 in assay) allylic substrate; DMAPP, GPP, and FPP all compete for binding to the free enzyme active site"}, "purified protein [4]": {"substrate": "CC(C)=CCOP(=O)(O)OP(=O)(O)O", "details": "Mg2+ ([…] MgCl2 in assay) allylic substrate; DMAPP, GPP, and FPP all compete for binding to the free enzyme active site"}}, "data": [{"protein": "farnesyl diphosphate/geranylgeranyl diphosphate synthase (rPfFPPS) (Plasmodium falciparum 3D7) (protein, full length protein expressed as a GST fusion protein) MENEQNNQDSENGLDYFRSMYDRYRDVFINHINDYVLEDDIKIIISKYYKLLFDYNCLGGKNNRGILVILIYEYVKNRDINCNEWEKVACIAWCIEILQASFLVADDIMDKGETRRNKHCWYLLKDVEIKNAVNDVFLLYNAIYKLLDVYLRNDNCYLDLITSFREATLKTIVGQHLDTNIFSDKYSHIDKDIDVNNINISQENKININMLNFKVYQNIIIHKTAYYSFFLPIVCGMQMGGISLDNLLYKKVENIAILMGEYFQVHDDYIDTFGDSKKTGKVGSDIQNNKLTWPLIKAFELCSQPEKEDIIRNYGKDNVTCIKFINDIYEHYNIRDHYVEYEKKQKMKILEAINQLHHEGIEYVLKYVMDILFTGA", "values": [{"measurement": "Km", "setting": "purified protein [1]", "value": "2.4 ± 0.3", "unit": "µM"}, {"measurement": "Vmax", "setting": "purified protein [1]", "value": 0.156, "unit": "µmol/min/mg"}, {"measurement": "Km", "setting": "purified protein [2]", "value": "2.06 ± 0.4", "unit": "µM"}, {"measurement": "Vmax", "setting": "purified protein [2]", "value": 0.327, "unit": "µmol/min/mg"}, {"measurement": "Km", "setting": "purified protein [3]", "value": "7.8 ± 1.3", "unit": "µM"}, {"measurement": "Vmax", "setting": "purified protein [3]", "value": 0.341, "unit": "µmol/min/mg"}, {"measurement": "Km", "setting": "purified protein [4]", "value": "68 ± 5", "unit": "µM"}, {"measurement": "Vmax", "setting": "purified protein [4]", "value": 0.453, "unit": "µmol/min/mg"}]}]}
